In US20250313634A1 (WUXI BIOLOGICS SHANGHAI, published 2025):

What was measured:
Experiment in all cases: capture ELISA on coated 1.14.4; relative to silent alanine substitutions
[1] = biological target: T1, hPD-L1_ECD.His point mutant K25A (human, UniProt Q9NZQ7 19-238)
T1 construct: extracellular domain
Method: (§1) After interacting with the supernatant that contains quantified PD-L1 mutant or human/mouse PD-L1_ECD.His protein (Sino Biological, China), HRP conjugated anti-His antibody (1:5000; Rockland Immunochemicals, Pottstown, PA) was added as detection antibody. Absorbance was normalized according to the average of control mutants. After setting an additional cutoff to the binding fold change (<0.55), the final determined epitope residues were identified.
(§2) The observed binding reductions most probably resulted from the instability or even collapse of hPD-L1 structure after alanine substitutions. After setting an additional cutoff to the binding fold change (<0.55), the final determined epitope residues were listed in Table 3.

[2] = biological target: T2, hPD-L1_ECD.His point mutant G120A (human, UniProt Q9NZQ7 19-238)
T2 construct: extracellular domain
T2 sequence (Q9NZQ7 19-238 G120A): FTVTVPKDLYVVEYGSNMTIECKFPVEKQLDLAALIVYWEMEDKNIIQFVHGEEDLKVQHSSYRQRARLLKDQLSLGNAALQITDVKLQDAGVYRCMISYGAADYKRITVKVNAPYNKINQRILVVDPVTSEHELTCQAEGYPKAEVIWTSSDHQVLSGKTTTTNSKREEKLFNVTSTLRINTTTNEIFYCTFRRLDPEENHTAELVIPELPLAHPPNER
Method: as §1, §2

[3] = biological target: T3, hPD-L1_ECD.His point mutant V143A (human, UniProt Q9NZQ7 19-238)
T3 construct: extracellular domain
T3 sequence (Q9NZQ7 19-238 V143A): as the sequence (Q9NZQ7 19-238 G120A) above, with A102G, V125A counted along it
Method: as §1, §2

[4] = biological target: T4, hPD-L1_ECD.His point mutant H78A (human, UniProt Q9NZQ7 19-238)
T4 construct: extracellular domain
T4 sequence (Q9NZQ7 19-238 H78A): as the sequence (Q9NZQ7 19-238 G120A) above, with H60A, A102G counted along it
Method: as §1, §2

[5] = biological target: T5, hPD-L1_ECD.His point mutant A109G (human, UniProt Q9NZQ7 19-238)
T5 construct: extracellular domain
T5 sequence (Q9NZQ7 19-238 A109G): as the sequence (Q9NZQ7 19-238 G120A) above, with A91G, A102G counted along it
Method: as §1, §2

[6] = biological target: T6, hPD-L1_ECD.His point mutant G159A (human, UniProt Q9NZQ7 19-238)
T6 construct: extracellular domain
T6 sequence (Q9NZQ7 19-238 G159A): as the sequence (Q9NZQ7 19-238 G120A) above, with A102G, G141A counted along it
Method: as §1, §2

[7] = biological target: T7, hPD-L1_ECD.His point mutant Y160A (human, UniProt Q9NZQ7 19-238)
T7 construct: extracellular domain
T7 sequence (Q9NZQ7 19-238 Y160A): as the sequence (Q9NZQ7 19-238 G120A) above, with A102G, Y142A counted along it
Method: as §1, §2

[8] = biological target: T8, hPD-L1_ECD.His point mutant P43A (human, UniProt Q9NZQ7 19-238)
T8 construct: extracellular domain
T8 sequence (Q9NZQ7 19-238 P43A): as the sequence (Q9NZQ7 19-238 G120A) above, with P25A, A102G counted along it
Method: as §1, §2

[9] = biological target: T9, hPD-L1_ECD.His point mutant F191A (human, UniProt Q9NZQ7 19-238)
T9 construct: extracellular domain
T9 sequence (Q9NZQ7 19-238 F191A): as the sequence (Q9NZQ7 19-238 G120A) above, with A102G, F173A counted along it
Method: as §1, §2

[10] = biological target: T10, hPD-L1_ECD.His point mutant A51G (human, UniProt Q9NZQ7 19-238)
T10 construct: extracellular domain
T10 sequence (Q9NZQ7 19-238 A51G): as the sequence (Q9NZQ7 19-238 G120A) above, with A33G, A102G counted along it
Method: as §1, §2

[11] = biological target: T11, hPD-L1_ECD.His point mutant N183A (human, UniProt Q9NZQ7 19-238)
T11 construct: extracellular domain
T11 sequence (Q9NZQ7 19-238 N183A): as the sequence (Q9NZQ7 19-238 G120A) above, with A102G, N165A counted along it
Method: as §1, §2

[12] = biological target: T12, hPD-L1_ECD.His point mutant L106A (human, UniProt Q9NZQ7 19-238)
T12 construct: extracellular domain
T12 sequence (Q9NZQ7 19-238 L106A): as the sequence (Q9NZQ7 19-238 G120A) above, with L88A, A102G counted along it
Method: as §1, §2

[13] = biological target: T13, hPD-L1_ECD.His point mutant T102A (human, UniProt Q9NZQ7 19-238)
T13 construct: extracellular domain
T13 sequence (Q9NZQ7 19-238 T102A): as the sequence (Q9NZQ7 19-238 G120A) above, with T84A, A102G counted along it
Method: as §1, §2

[14] = biological target: T14, hPD-L1_ECD.His point mutant E188A (human, UniProt Q9NZQ7 19-238)
T14 construct: extracellular domain
T14 sequence (Q9NZQ7 19-238 E188A): as the sequence (Q9NZQ7 19-238 G120A) above, with A102G, E170A counted along it
Method: as §1, §2

[15] = biological target: T15, hPD-L1_ECD.His point mutant E217A (human, UniProt Q9NZQ7 19-238)
T15 construct: extracellular domain
T15 sequence (Q9NZQ7 19-238 E217A): as the sequence (Q9NZQ7 19-238 G120A) above, with A102G, E199A counted along it
Method: as §1, §2

[16] = biological target: T16, hPD-L1_ECD.His point mutant G110A (human, UniProt Q9NZQ7 19-238)
T16 construct: extracellular domain
T16 sequence (Q9NZQ7 19-238 G110A): as the sequence (Q9NZQ7 19-238 G120A) above, with G92A, A102G counted along it
Method: as §1, §2

[17] = biological target: T17, hPD-L1_ECD.His point mutant T196A (human, UniProt Q9NZQ7 19-238)
T17 construct: extracellular domain
T17 sequence (Q9NZQ7 19-238 T196A): as the sequence (Q9NZQ7 19-238 G120A) above, with A102G, T178A counted along it
Method: as §1, §2

[18] = biological target: T18, hPD-L1_ECD.His point mutant T180A (human, UniProt Q9NZQ7 19-238)
T18 construct: extracellular domain
T18 sequence (Q9NZQ7 19-238 T180A): as the sequence (Q9NZQ7 19-238 G120A) above, with A102G, T162A counted along it
Method: as §1, §2

[19] = biological target: T19, hPD-L1_ECD.His point mutant N63A (human, UniProt Q9NZQ7 19-238)
T19 construct: extracellular domain
T19 sequence (Q9NZQ7 19-238 N63A): as the sequence (Q9NZQ7 19-238 G120A) above, with N45A, A102G counted along it
Method: as §1, §2

[20] = biological target: T20, hPD-L1_ECD.His point mutant K129A (human, UniProt Q9NZQ7 19-238)
T20 construct: extracellular domain
T20 sequence (Q9NZQ7 19-238 K129A): as the sequence (Q9NZQ7 19-238 G120A) above, with A102G, K111A counted along it
Method: as §1, §2

[21] = biological target: T21, hPD-L1_ECD.His point mutant F19A (human, UniProt Q9NZQ7 19-238)
T21 construct: extracellular domain
T21 sequence (Q9NZQ7 19-238 F19A): as the sequence (Q9NZQ7 19-238 G120A) above, with F1A, A102G counted along it
Method: as §1, §2

[22] = biological target: T22, hPD-L1_ECD.His point mutant M115A (human, UniProt Q9NZQ7 19-238)
T22 construct: extracellular domain
T22 sequence (Q9NZQ7 19-238 M115A): as the sequence (Q9NZQ7 19-238 G120A) above, with M97A, A102G counted along it
Method: as §1, §2

[23] = biological target: T23, hPD-L1_ECD.His point mutant L50A (human, UniProt Q9NZQ7 19-238)
T23 construct: extracellular domain
T23 sequence (Q9NZQ7 19-238 L50A): as the sequence (Q9NZQ7 19-238 G120A) above, with L32A, A102G counted along it
Method: as §1, §2

[24] = biological target: T24, hPD-L1_ECD.His point mutant K89A (human, UniProt Q9NZQ7 19-238)
T24 construct: extracellular domain
T24 sequence (Q9NZQ7 19-238 K89A): as the sequence (Q9NZQ7 19-238 G120A) above, with K71A, A102G counted along it
Method: as §1, §2

[25] = biological target: T25, hPD-L1_ECD.His point mutant N135A (human, UniProt Q9NZQ7 19-238)
T25 construct: extracellular domain
T25 sequence (Q9NZQ7 19-238 N135A): as the sequence (Q9NZQ7 19-238 G120A) above, with A102G, N117A counted along it
Method: as §1, §2

[26] = biological target: T26, hPD-L1_ECD.His point mutant P133A (human, UniProt Q9NZQ7 19-238)
T26 construct: extracellular domain
T26 sequence (Q9NZQ7 19-238 P133A): as the sequence (Q9NZQ7 19-238 G120A) above, with A102G, P115A counted along it
Method: as §1, §2

T1 sequence (Q9NZQ7 19-238 K25A): as the sequence (Q9NZQ7 19-238 G120A) above, with K7A, A102G counted along it

B1: 1.14.4 (antibody, V domains shown)
VH: EVQLLESGGGLVQPGGSLRLSCAASGFTFSSYAMSWVRQAPGKGLEWVSGISGSGGFTYYADSVKGRFTISRDNSKNTLYLQMNSLRAEDTAVYYCAKPPRGYNYGPFDYWGQGTLVTVSS
VL: SYVLTQPPSVSVAPGQTARITCGGNNIGSKSVHWYQQKPGQAPVLVVYDDSDRPSGIPERFSGSNSGNTATLTISRVEAGDEADYYCQVWDSSSDHVVFGGGTKLTVL
notes: Fully human monoclonal antibody with a human constant region of IgG4 isotype
- fold change [1]: 0.857 fold
- fold change [2]: 0.895 fold
- fold change [3]: 1.02 fold
- fold change [4]: 0.821 fold
- fold change [5]: 0.797 fold
- fold change [6]: 0.448 fold
- fold change [7]: 0.505 fold
- fold change [8]: 0.834 fold
- fold change [9]: 0.897 fold
- fold change [10]: 1.03 fold
- fold change [11]: 0.944 fold
- fold change [12]: 0.732 fold
- fold change [13]: 0.887 fold
- fold change [14]: 0.833 fold
- fold change [15]: 0.823 fold
- fold change [16]: 0.632 fold
- fold change [17]: 0.898 fold
- fold change [18]: 1 fold
- fold change [19]: 0.285 fold
- fold change [20]: 0.586 fold
- fold change [21]: 0.78 fold
- fold change [22]: 1.02 fold
- fold change [23]: 0.614 fold
- fold change [24]: 0.913 fold
- fold change [25]: 1.03 fold
- fold change [26]: 0.664 fold
